Key:
[1] = target: the molecule itself; assay: cross-linking
[2] = target: the molecule itself; assay: SEC-MALS

B1: FLAG-tagged full-length mouse TRIM56, wild type (natural protein, UniProt Q80VI1 1-734, looked up)
chain: MNSKVSSPTLLEALSSDFLACKICLEQLHTPKTLPCLHTYCQDCLAQLDIGGQVRCPECREIVPVPAEGVAAFKTNFFVNGLLDLVKARAPGDVHSGKPTCALCPLVGGKSSGGPATARCLDCADDLCQACADGHRCSRQTHKHRVVDLVGYRAGWYDEEARERQASQCPQHPGEALCFLCQPCSQLLCKDCRLGPHIDHPCLPLAEAVRSRKPGLEELLAGVDSNLVELEATRVAEKEALALLREQAASVGTQVEEAAERILKSLLAQKQEVLGQLRALVEAAEEATRERLTKIERQEQVAKAAAAFARRVLSLGLEAEILSLEGAITQRLRQLQDAPWTSGPTRCVLPQLELHPGLEDKNCHLLRLIFEEPKQSPKDSGKGGAGTQGGDEAQGQGDDRTKIGKQGGAQPLTPKEGKDQNPQEDDGVFIERGNRPNKKKKCKGRGKSVSREPSPILRPNLEGSGLLPRPVFSWSFPTRMPGDKRSPRITGLCPYGPQEILVADEQNRVLKRFSLNGDYKGTVQVPEGCSPCSVAALQNAVAFSANAKLYLVSPDGEIQWRRSLSLTQSSHAVAAMPCGDRVAVSVAGHVEVYKKDGSLATRFIPGGKASRGQRALVFLTTSPQGNFVGSDWQQNSVVFCDGLGQVIWEYKGPGLHGCQPGSVSVDKKGYIFLTLREVNKVVILDPKGSLLGDFLTAYHGLEKPRVTTMVDGKYLVVSLSNGTIHVFRVRFPDS
- stoichiometry N [1]: 4

B2: mouse TRIM56 RING domain (residues 2-88) (domain or fragment, UniProt Q80VI1 2-88, looked up)
chain: NSKVSSPTLLEALSSDFLACKICLEQLHTPKTLPCLHTYCQDCLAQLDIGGQVRCPECREIVPVPAEGVAAFKTNFFVNGLLDLVKA
- stoichiometry N [2]: 2

B3: mouse TRIM56 coiled-coil domain (residues 215-303) (domain or fragment, UniProt Q80VI1 215-303, looked up)
chain: GLEELLAGVDSNLVELEATRVAEKEALALLREQAASVGTQVEEAAERILKSLLAQKQEVLGQLRALVEAAEEATRERLTKIERQEQVAK
- stoichiometry N [2]: 4

B4: mouse TRIM56 coiled-coil domain mutant (L244A, V251A, V255A, I262A, L266A, Q269A, V273A, Q276A, L277A, L280A, R291A) (domain or fragment, UniProt Q80VI1 215-303, looked up)
chain: GLEELLAGVDSNLVELEATRVAEKEALALAREQAASAGTQAEEAAERALKSALAAKQEALGAARAAVEAAEEATREALTKIERQEQVAK
- stoichiometry N [2]: 2

From publication PMC10165346 (Computational and Structural Biotechnology Journal, 2023)
